Data taken from patent publication US20160039867A1 (COMPLIX, published 2016).

Experiments:
[1] = target: the molecule itself; experiment: analytical sedimentation equilibrium ultracentrifugation, 25000 rpm, about 1 mg/ml; self-association of the peptide
[2] = target: the molecule itself; experiment: CD thermal unfolding curve (222 nm, 292 microM peptide) fitted to a monomer-trimer equilibrium; self-association of the peptide
Description: The said synthesized peptide was dissolved at a concentration of 292 microM in 20 mM phosphate buffer (PBS), 150 mM NaCl, pH 7.2. The CD spectra were measured between […], at 5° C. and 90° C. (FIG. 3). The spectrum at 5° C. was indicative of a high alpha-helical secondary structure content, in agreement with the expectation that all heptad regions, but not all of the flanking residues, would assemble as alpha-helical coiled coils.
In order to analyze whether the temperature-induced transition between helical and non-helical states was reversible, a forward (up) and backward (down) thermal scan was performed on the same sample, by recording the CD signal at […] as a function of temperature at a scanning rate of about 1 degree Celsius per minute (FIG. 4). It was observed that the up and down scans almost perfectly coincided, thereby confirming the quantitative unfolding and refolding of the peptides in the sample.
FIG. 5 represents fitting of a theoretic equation for trimeric association to experimental data. The experimental data are taken from FIG. 4, curve labeled ‘UP’. The theoretic equations used are listed supra. The fitted parameters (fitting results) are listed at the right in FIG. 5. ‘Transit. T’ corresponds to Tₜ, but is expressed in degrees Celsius. The parameter ‘delta Cₚ’ was kept constant at 3.0 kJ mol⁻¹ K⁻¹. […]

Protein | binding result [1] | binding result [2]
Ac-MSIEEIQKQIAAIQKQIAAIQKQIYRMTP-NH2 (Synthetic designed coiled coil-forming peptide; also called all-isoleucine core peptide) [Q2aI peptide Ac-MSIEEIQKQIAAIQKQIAAIQKQIYRMTP-NH2] | binds | 
Ac-MSIEEIQKQQAAIQKQIAAIQKQIYRMTP-NH2 (Synthetic designed coiled coil-forming peptide; also called said synthesized peptide) [peptide Ac-MSIEEIQKQQAAIQKQIAAIQKQIYRMTP-NH2 (reference artificial peptide of Example 3)] |  | binds
